Experiments:
[1] = target: biotinylated SARS-CoV-2 Spike protein (WA-2, 2 P) (SARS-CoV-2 WA-2 (entry: reference …, UniProt P0DTC2, stabilised, biotinylated))
[2] = target: OC43 Spike protein, 2 P (human coronavirus OC43, isolate not …, UniProt P36334, stabilised); assay: ELISA; conditions: both partners purified
[3] = target: T1, S2hlx-Ex19 epitope scaffold (synthetic design (Mus musculus VPS54 …)); assay: SPR; conditions: both partners purified
T1 construct: source: E. coli BL-21 (DE3), purified (Ni-NTA, SEC)
T1 chain: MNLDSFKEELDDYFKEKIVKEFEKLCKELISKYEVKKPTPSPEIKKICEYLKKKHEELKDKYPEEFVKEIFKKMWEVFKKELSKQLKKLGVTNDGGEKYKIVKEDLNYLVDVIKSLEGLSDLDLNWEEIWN

[4] = target: T2, synthesized SARS-CoV-2 stem helix peptide (residues 1147-1161) (SARS-CoV-2, UniProt P0DTC2); assay: ELISA; conditions: both partners purified
T2 construct: source: synthetic peptide

[5] = target: T3, S2hlx-7 epitope scaffold (synthetic design (Rhodopseudomonas …)); assay: SPR; conditions: both partners purified
T3 construct: source: E. coli BL-21 (DE3), purified (Ni-NTA, SEC)
T3 chain: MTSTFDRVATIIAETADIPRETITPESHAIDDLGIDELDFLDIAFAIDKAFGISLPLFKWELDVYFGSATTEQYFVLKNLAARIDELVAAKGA

[6] = target: T4, synthesized stem helix peptide (1140-1164) (SARS-CoV-2, UniProt P0DTC2); assay: ELISA; conditions: both partners purified
T4 chain: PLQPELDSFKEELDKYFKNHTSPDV

Binder	binding result [1]	binding result [2]	binding result [4]	further results
DH1501.1 (antibody, V domains shown) VH: EVQLVESGAEVKKPGASVRVSCKASGFTFTDHYMHWVRQAPGQGLEWMGLINPTGVNTFYAQNFRGRVTMTRDTSTKTDYLEVRSLTSQDTAMYYCARMSRYGAFDIWGQGTMVTVSL VL: EIVLTQSPGTLSLSPGERATLSCRASQSVGSGYLAWYQQKPGQAPRLLIYGASVRATGIPDRFSGSGSGTDFSLTINRVEPEDFAMYYCQNYGSSPPRYTFGQGTKLEIK	binds			
DH1501.2 (antibody, V domains shown) VH: EVQLVESGAEVKKPGASVRLSCKASGDTFNNKYVHWVRQAPGQGLEWMGLINPSGSGTAFAQKFQGRVSMTRDTSTRTVYLGLTSLTYEDTAVYYCARMSRAGTFDIWDQGTMVTVSS VL: EIVLTQSPGTLSLSPGDRATLSCRASENVGTSYLAWYQQKPGQAPRLLISGTSSRATGVPDRFSGSGSGRDFTLTISRLEPEDFAVYYCQQYGSSPPRYTFGQGTKLDMK	binds			
S2P6 mAb (antibody, V domains shown, IgG; IGHV1-46/IGKV3-20; source: Expi293F, transfected, purified (Protein A)) VH: EVQLVQSGAEVKKPGASVKVSCKASGYTFTSQYMHWVRQAPGQGLEWIGIINPSGVHTSYAQKFQGRVTLTRDTSTSTLYMELSSLRSEDTAVYYCARGSPKGAFDYWGQGTLVTVSS VL: not shown		binds		
CC40.8 mAb (antibody, V domains shown, IgG; source: Expi293F, transfected, purified (Protein A)) VH: EVQLLESGGGLVQPGGSLRLSCAASGFTFSSYVMTWARQAPGKGLEWVSAISGTGYTYYADSVKGRFTVSRDNSKNTLFLQMSSLRAEDTAVYYCAITMAPVVWGQGTTVTVSS VL: SYELTQPPSVSVSPGQTARITCSGDALPKRYAYWYQQKSGQAPILVIYEDKKRPSGIPERLSGSKSGTVATLTISGAQVEDEADYYCYSTDSSGNHAVFGGGTQLTVL		binds	no binding	Kd [3]: 6.7 nM
DH1057.1 mAb (antibody, V domains shown, source: Expi293F, transfected, purified (Protein A)) VH: EVQLVESGTEVKKPGASVKVSCKTSGYIFTNYYIHWVRQAPGQGLEWMGIFNPNGGGTSYAQKFQGRITLTGNTSANTGYMVLRSLTSEDTAVYYCARDPRTSGDNDGFDMWGQGTKVTVSS VL: VLTQSPATLSLSPGERATLSCRASQSLSSYNYLAWYQQKPGQAPRLLIYAASKRATGIPARFSGSGSGTDFTLTISSLEPEDFAVYFCQQRSNRPPAWTFGQGTKVEIK			binds	fold better binding than spike [5]: > 10 fold; binding result [6]: binds
DH1501.3 (antibody, V domains shown) VH: QVQLVQSGAEVKKPGASVRLSCKASGDTFTNEYVQWVRQAPGQGLEWMGLINPSGSGTAFARNFQGRVSMTRDTSTRTVYMDLTSLRYEDTAVYYCARMSRAGTFDLWGQGTMVTVSS VL: EIVLTQSPDTLSLSLGERATLFCRASETIDSRYLAWYQQKPGRAPRLLMSGTSVRATGIPDRFSGSGSGTDFTLTITRLEPEDFAVYYCQQYGSSPPRYTFGQGTKLAMK	binds			
